Measured values taken from patent US20180346602A1.
Numbering of substitutions follows the chain as printed. Each block holds one binder with its values, some of them ahead of it.

Columns and labels:
[1] = target: anti-VEGF/ANG2 antibody (wild-type IgG1 subclass) (human) [IgG part: P01857]; test: sandwich ELISA assay C; capture on SA plate; tracer FcγRI-Dig; analyte 2 ng/mL
[2] = target: anti-VEGF/ANG2 antibody (wild-type IgG1 subclass) (human) [IgG part: P01857]; test: sandwich ELISA assay B; capture on SA plate; tracer M1.7.10-Dig; analyte 13 ng/mL
[3] = target: target antibodies; test: depletion of target antibody from sample; concentration before depletion 1.00 µg/mL
[4] = target: anti-VEGF/ANG2 antibody (wild-type IgG1 subclass) (human) [IgG part: P01857]; test: sandwich ELISA assay C; capture on SA plate; tracer FcγRI-Dig; analyte 25 ng/mL
[5] = target: anti-VEGF/ANG2 antibody (wild-type IgG1 subclass) (human) [IgG part: P01857]; test: sandwich ELISA assay C; capture on SA plate; tracer FcγRI-Dig; analyte 100 ng/mL
[6] = target: anti-VEGF/ANG2 antibody (IgG1 subclass with mutations P329G/L234A/L235A/I253A/H310A/H435A) [IgG part: P01857]; test: bridging ELISA; biotinylated and digoxigenylated anti-VEGF/ANG2 antibody bridged by M1.3.17 at 62.5 ng/mL
[7] = target: anti-VEGF/ANG2 antibody (IgG1 subclass with mutations P329G/L234A/L235A/I253A/H310A/H435A) [IgG part: P01857]; test: bridging ELISA; biotinylated and digoxigenylated anti-VEGF/ANG2 antibody bridged by M1.3.17 at 15.625 ng/mL
[8] = target: anti-Dig antibody (IgG1 subclass with mutations P329G/L234A/L235A) [IgG part: P01857]; test: sandwich ELISA assay D; tracer M1.19.31-Dig; analyte conc. not printed (row 1 of 8)
[9] = target: anti-VEGF/ANG2 antibody (IgG1 subclass with mutations P329G/L234A/L235A/I253A/H310A/H435A) [IgG part: P01857]; test: sandwich ELISA in serum; capture M1.3.17, tracer M1.7.24; anti-VEGF/ANG2 antibody 625 ng/mL
[10] = target: anti-VEGF/ANG2 antibody (IgG1 subclass with mutations P329G/L234A/L235A/I253A/H310A/H435A) (human) [IgG part: P01857]; test: sandwich ELISA in serum; M1.3.17-Bi capture on SA plate; tracer anti-human kappa M1.7.10-Dig; analyte 5 ng/mL
[11] = target: anti-VEGF/ANG2 antibody (IgG1 subclass with mutations P329G/L234A/L235A/I253A/H310A/H435A) [IgG part: P01857]; test: sandwich ELISA assay E; tracer M1.7.10-Dig; analyte 1) at 50 ng/mL
[12] = target: anti-VEGF/ANG2 antibody (IgG1 subclass with mutations P329G/L234A/L235A/I253A/H310A/H435A) [IgG part: P01857]; test: bridging ELISA; biotinylated and digoxigenylated anti-VEGF/ANG2 antibody bridged by M1.3.17 at 31.25 ng/mL
[13] = target: anti-Dig antibody (IgG1 subclass with mutations P329G/L234A/L235A) [IgG part: P01857]; test: sandwich ELISA assay D; tracer M1.19.31-Dig; analyte conc. not printed (row 5 of 8)
[14] = target: anti-VEGF/ANG2 antibody (IgG1 subclass with mutations P329G/L234A/L235A/I253A/H310A/H435A) [IgG part: P01857]; test: sandwich ELISA in serum; capture M1.3.17, tracer M1.7.24; anti-VEGF/ANG2 antibody 39.0625 ng/mL
[15] = target: anti-VEGF/ANG2 antibody (IgG1 subclass with mutations P329G/L234A/L235A/I253A/H310A/H435A) (human) [IgG part: P01857]; test: sandwich ELISA in serum; M1.3.17-Bi capture on SA plate; tracer anti-human kappa M1.7.10-Dig; analyte 1.25 ng/mL
[16] = target: anti-Dig antibody (IgG1 subclass with mutations P329G/L234A/L235A) [IgG part: P01857]; test: sandwich ELISA assay D; tracer M1.19.31-Dig; analyte conc. not printed (row 8 of 8)
[17] = target: anti-VEGF/ANG2 antibody (IgG1 subclass with mutations P329G/L234A/L235A/I253A/H310A/H435A) [IgG part: P01857]; test: bridging ELISA; biotinylated and digoxigenylated anti-VEGF/ANG2 antibody bridged by M1.3.17 at 125 ng/mL
[18] = target: anti-VEGF/ANG2 antibody (IgG1 subclass with mutations P329G/L234A/L235A/I253A/H310A/H435A) [IgG part: P01857]; test: sandwich ELISA in serum; capture M1.3.17, tracer M1.7.24; anti-VEGF/ANG2 antibody 1250 ng/mL
[19] = target: cytokine (IL-2) antibody conjugate with the mutations P329G, L234A, L235A, I253A, H310A, and H435A; test: sandwich ELISA in serum; capture anti-IL2 antibody, tracer M1.7.24; conjugate 78.125 ng/mL
[20] = target: anti-VEGF/ANG2 antibody (IgG1 subclass with mutations P329G/L234A/L235A/I253A/H310A/H435A) [IgG part: P01857]; test: sandwich ELISA in serum; capture M1.7.10-Bi, tracer M1.7.24-Dig; anti-VEGF/ANG2 antibody 0.15625 ng/mL
[21] = target: anti-VEGF/ANG2 antibody (IgG1 subclass with mutations P329G/L234A/L235A/I253A/H310A/H435A) [IgG part: P01857]; test: sandwich ELISA in serum; capture M1.7.10-Bi, tracer M1.7.24-Dig; anti-VEGF/ANG2 antibody 0.625 ng/mL
[22] = target: cytokine (IL-2) antibody conjugate with the mutations P329G, L234A, L235A, I253A, H310A, and H435A; test: sandwich ELISA in serum; capture anti-IL2 antibody, tracer M1.7.24; conjugate 2500 ng/mL

- signal [OD405 nm] [1]: 0.077 OD405 nm
- signal [OD405 nm] [2]: 0.046 OD405 nm
- concentration after depletion [3]: 0.0003 µg/mL
- recovery [%] [3]: 0.031%
- signal [OD405 nm] [4]: 0.066 OD405 nm
- signal [OD405 nm] [5]: 0.076 OD405 nm
B1: anti-AAA variant Fc-region antibody M1.6.22 (antibody, V domains shown)
VH: EVQLVESGGDLVKPGGSLKLSCAASGFTFSSYGMSWVRQTPDKRLEWVATISSGGSYIYYPDSVKGRFTISRDNAKNTLYLQMSSLKSEDTAMYYCARLGMITTGYAMDYWGQGTSVTVSS
VL: DVLMTQTPLSLPVSLGDQASISCRSSQTIVHSTGHTYLEWFLQKPGQSPKLLIYKVSNRFSGVPDRFSGSGSGTDFTLKISRVEAEDLGVYYCFQGSHVPYTFGGGTKLEIK

- signal [OD405 nm] [6]: 0.063 OD405 nm
- signal [OD405 nm] [7]: 0.05 OD405 nm
- signal 10% cynomolgus serum [OD405 nm] [8]: 1.87 OD405 nm
- signal 10% human serum [OD405 nm] [8]: 2.58 OD405 nm
- signal buffer [OD405 nm] [8]: 0.05 OD405 nm
- concentration after depletion [3]: 0.0007 µg/mL
- recovery [%] [3]: 0.067%
- signal [OD405 nm] [9]: 1.13 OD405 nm
- signal [OD405 nm] [10]: 1.6 OD405 nm
- signal [OD405 nm] [11]: 1.95 OD405 nm
- signal [OD405 nm] [12]: 0.054 OD405 nm
- signal 10% cynomolgus serum [OD405 nm] [13]: 0.105 OD405 nm
- signal 10% human serum [OD405 nm] [13]: 1.71 OD405 nm
- signal buffer [OD405 nm] [13]: 0.036 OD405 nm
- signal [OD405 nm] [14]: 0.233 OD405 nm
- signal [OD405 nm] [15]: 0.573 OD405 nm
- signal 10% cynomolgus serum [OD405 nm] [16]: 0.077 OD405 nm
- signal 10% human serum [OD405 nm] [16]: 1.8 OD405 nm
- signal buffer [OD405 nm] [16]: 0.036 OD405 nm
- signal [OD405 nm] [17]: 0.085 OD405 nm
- signal [OD405 nm] [18]: 1.88 OD405 nm
B2: anti-variant (human) Fc-region antibody M1.3.17 (antibody, V domains shown)
VH: EVKLLESGGGLVQPGGSLKLSCAASGIDFRRYWMNWVRQAPGKGLEWIGEIDPDSSTINYTPSLKDKFIISRDNAKNTMYLQMRKVRSEDTALYYCARPYDYGAWFAYWGQGTLVTVSA
VL: QAVVTQESALTTSPGETVTLTCRSTTGAVTTSNYANWVQEKPDHLFTGLIGGTNKRAPGVPARFSGSLIGDKAALTITGAQTEDEAIYFCALWYSDHWVFGGGTKLTVL

- signal [OD405 nm] [19]: 0.152 OD405 nm
- signal [OD405 nm] [1]: 0.058 OD405 nm
- signal [OD405 nm] [2]: 0.04 OD405 nm
- signal [OD405 nm] [20]: 0.147 OD405 nm
- signal [OD405 nm] [21]: 0.468 OD405 nm
- signal 10% cynomolgus serum [OD405 nm] [8]: 2.25 OD405 nm
- signal 10% human serum [OD405 nm] [8]: 2.5 OD405 nm
- signal buffer [OD405 nm] [8]: 0.054 OD405 nm
- signal [OD405 nm] [11]: 1.94 OD405 nm
- signal [OD405 nm] [22]: 2.35 OD405 nm
- signal 10% cynomolgus serum [OD405 nm] [13]: 0.078 OD405 nm
- signal 10% human serum [OD405 nm] [13]: 1.33 OD405 nm
- signal buffer [OD405 nm] [13]: 0.033 OD405 nm
- signal [OD405 nm] [4]: 0.063 OD405 nm
- signal 10% cynomolgus serum [OD405 nm] [16]: 0.035 OD405 nm
- signal 10% human serum [OD405 nm] [16]: 1.42 OD405 nm
- signal buffer [OD405 nm] [16]: 0.033 OD405 nm
- signal [OD405 nm] [5]: 0.073 OD405 nm
B3: anti-variant (human) Fc-region antibody M1.7.24 (antibody, V domains shown)
VH: B2 VH with I27F, R30S, D52T, M79L, R84I, A97V, Y108S
VL: B2 VL with T25S, D96N
